Experimental data reported in paper PMC11150655, “IpaA reveals distinct modes of vinculin activation during Shigella invasion and cell-matrix adhesion” (Life Science Alliance, 2024).
Residue numbers refer to the chain shown, from its start.

Tests used:
Settings in all cases: both partners purified
[1] = molecular target: T1, vinculin D1D2 V367D (human, UniProt P18206 1-484, V367D); test: native gel or EMSA; CN-PAGE: D1D2 variant (20 μM) with increasing molar ratio of aVBD, 60 min at 21°C; 7.5% (Fig 2, methods) or 10% (Fig 3, S3) native polyacrylamide gel, Coomassie staining, scanning densitometry normalised to monomeric D1D2 without aVBD; rates from linear fits against the aVBD:D1D2 ratio
T1 construct: vinculin, human, head subdomains D1 and D2, residues 1-484, with V367D
T1 sequence (looked up): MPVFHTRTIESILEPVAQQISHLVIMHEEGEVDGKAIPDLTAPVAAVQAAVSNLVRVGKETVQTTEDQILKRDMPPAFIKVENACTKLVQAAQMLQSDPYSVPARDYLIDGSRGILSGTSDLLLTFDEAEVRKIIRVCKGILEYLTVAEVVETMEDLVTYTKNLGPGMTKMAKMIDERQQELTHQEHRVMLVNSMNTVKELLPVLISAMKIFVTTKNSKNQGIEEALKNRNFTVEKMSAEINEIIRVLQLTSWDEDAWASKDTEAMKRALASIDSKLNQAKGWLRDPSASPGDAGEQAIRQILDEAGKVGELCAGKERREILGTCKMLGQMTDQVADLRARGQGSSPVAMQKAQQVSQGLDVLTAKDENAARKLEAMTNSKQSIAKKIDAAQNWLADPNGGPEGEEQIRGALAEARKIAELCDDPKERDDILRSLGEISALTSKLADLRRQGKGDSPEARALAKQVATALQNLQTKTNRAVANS

[2] = molecular target: T2, vinculin D1D2 N393D (human, UniProt P18206 1-484, N393D); test: as above
T2 construct: vinculin, human, head subdomains D1 and D2, residues 1-484, with N393D
T2 sequence (looked up): T1 sequence (looked up) with D367V, N393D

[3] = molecular target: T3, vinculin D1D2 K139E (human, UniProt P18206 1-484, K139E); test: as above
T3 construct: vinculin, human, head subdomains D1 and D2, residues 1-484, with K139E
T3 sequence (looked up): T1 sequence (looked up) with K139E, D367V

[4] = molecular target: T4, vinculin D1D2 D389R (human, UniProt P18206 1-484, D389R); test: as above
T4 construct: vinculin, human, head subdomains D1 and D2, residues 1-484, with D389R
T4 sequence (looked up): T1 sequence (looked up) with D367V, D389R

[5] = molecular target: T5, vinculin D1D2 E143K (human, UniProt P18206 1-484, E143K); test: as above
T5 construct: vinculin, human, head subdomains D1 and D2, residues 1-484, with E143K
T5 sequence (looked up): T1 sequence (looked up) with E143K, D367V

[6] = molecular target: T6, vinculin D1D2 (vinculin residues 1–484) (human, UniProt P18206 1-484); test: as above
T6 construct: vinculin, human, head subdomains D1 and D2, residues 1-484; Valencia-Gallardo et al, 2023) for the plasmid and the purification; also called WT; parental D1D2
T6 sequence (looked up): T1 sequence (looked up) with D367V

[7] = molecular target: T7, vinculin D1D2 K386D (human, UniProt P18206 1-484, K386D); test: as above
T7 construct: vinculin, human, head subdomains D1 and D2, residues 1-484, with K386D
T7 sequence (looked up): T1 sequence (looked up) with D367V, K386D

[8] = molecular target: T6, vinculin D1D2 (vinculin residues 1–484); test: native gel or EMSA; band A′ cut from the CN-PAGE gel, run in a second dimension on SDS–PAGE, Coomassie staining and scanning densitometry of D1D2 and aVBD (N = 2)

B1: IpaA domain containing all three IpaA VBS1-3 (aVBD) (domain or fragment)
chain: GDTYLTRETIFEASKKVTNSLSNLISLIGTKSGTQERELQEKSKDITKSTTEHRINNKLKVTDANIRNYVTETNADTIDKNHAIYEKAKEVSSALSKVLSKIDDTSAELLTDDISDLKNNNDITAENNNIYKAAKDVTTSLSKVLKNINKD
notes: The plasmid is said to be described previously; also called A483; source: E. coli DH5-α, pGEX-4T2-aVBD, purified (GSTrap, thrombin on the column, SEC on Superdex 200)
[1]
  rate of monomer disappearance: -0.88 AU^−1
[2]
  rate of monomer disappearance: -1.32 AU^−1
[3]
  rate of monomer disappearance: -1.42 AU^−1
[4]
  rate of monomer disappearance: -1.06 AU^−1
[5]
  rate of monomer disappearance: -0.88 AU^−1
[6]
  rate of monomer disappearance: -1.06 AU^−1
[7]
  rate of monomer disappearance: -1.29 AU^−1
[8]
  stoichiometry N: 3.2 D1D2:aVBD molar ratio
